# Data: patent US20250255960A1 (HRAIN BIOTECHNOLOGY, published 2025)
# Substitutions are numbered along the chain they refer to.
# T1: Fc-labeled CD70 antigen
# T1 construct: soluble antigen used at 1:100 to stain CAR-T cells; also called detected with the secondary antibody PE-Fc (axis label PE-Fc)
# T1 sequence (P32970 whole entry, species assumed, looked up): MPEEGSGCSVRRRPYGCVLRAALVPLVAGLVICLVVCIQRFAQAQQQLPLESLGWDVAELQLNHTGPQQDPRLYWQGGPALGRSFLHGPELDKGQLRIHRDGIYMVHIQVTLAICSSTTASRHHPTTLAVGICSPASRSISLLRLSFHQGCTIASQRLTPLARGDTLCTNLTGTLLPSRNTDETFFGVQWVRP
# B1: 9D8-BBz (other)
# chimeric antigen receptor chain: QLQLVESGGGLVQPGGSLRLSCAVSGRTSSTYAMAWFRQAPGKEREIVAVITWSGGRTAYADSVKGRFTIAKDSAKNTVYLQMNSLKPEDTAVYYCAADSEVSSSSEGQYGYESWGQGTQVTVSSTTTPAPRPPTPAPTIASQPLSLRPEACRPAAGGAVHTRGLDFACDIYIWAPLAGTCGVLLLSLVITLYCRFSVVKRGRKKLLYIFKQPFMRPVQTTQEEDGCSCRFPEEEEGGCELRVKFSRSADAPAYQQGQNQLYNELNLGRREEYDVLDKRRGRDPEMGGKPRRKNPQEGLYNELQKDKMAEAYSEIGMKGERRRGKGHDGLYQGLSTATKDTYDALHMQALPPR
# notes: also called CD70-9D8-BBz
# B2: 8B4-BBz (other)
# chimeric antigen receptor chain: EVQLVESGGGFVQPGGSLRLSCAASGFTLDGYAVAWFRQAPGKEREGVSCISSSDGSTYYIDSVQGRFTITRNNAKNTVYLQMNSLKPEDTAVYYCTTDVLTSCRSDRWLEVWGQGTLVTVSSTTTPAPRPPTPAPTIASQPLSLRPEACRPAAGGAVHTRGLDFACDIYIWAPLAGTCGVLLLSLVITLYCRFSVVKRGRKKLLYIFKQPFMRPVQTTQEEDGCSCRFPEEEEGGCELRVKFSRSADAPAYQQGQNQLYNELNLGRREEYDVLDKRRGRDPEMGGKPRRKNPQEGLYNELQKDKMAEAYSEIGMKGERRRGKGHDGLYQGLSTATKDTYDALHMQALPPR
# notes: also called CD70-8B4-BBz
# B3: 2A5-BBz (other)
# chimeric antigen receptor chain: EVQLVESGGGLVQAGGSLRLSCAASGSIFSINAMGWYRQAPGKQRELVAAITSGGSTNYADSVKGRFTISRDNAKNTVYLQMNSLKPEDTAVYYCNAGAGRAFPGDYWGQGTQVTVSSTTTPAPRPPTPAPTIASQPLSLRPEACRPAAGGAVHTRGLDFACDIYIWAPLAGTCGVLLLSLVITLYCRFSVVKRGRKKLLYIFKQPFMRPVQTTQEEDGCSCRFPEEEEGGCELRVKFSRSADAPAYQQGQNQLYNELNLGRREEYDVLDKRRGRDPEMGGKPRRKNPQEGLYNELQKDKMAEAYSEIGMKGERRRGKGHDGLYQGLSTATKDTYDALHMQALPPR
# notes: also called CD70-2A5-BBz
# B4: 5C10-BBz (other)
# chimeric antigen receptor chain: B3 chimeric antigen receptor chain with E1Q, I31M, A60V
# notes: also called CD70-5C10-BBz
# B5: 8F9-BBz (other)
# chimeric antigen receptor chain: QLQLVESGGGLVQAGGSLRLSCAVSGRTSSTYAMAWFRQAPGKEREIVAVIGWSGGRTAYADSVKGRFTIAKDNAKNTVSLQMNSLKPEDTGVYYCAADSEQSSSSEGQAYGYEDWGQGTLVTVSSTTTPAPRPPTPAPTIASQPLSLRPEACRPAAGGAVHTRGLDFACDIYIWAPLAGTCGVLLLSLVITLYCRFSVVKRGRKKLLYIFKQPFMRPVQTTQEEDGCSCRFPEEEEGGCELRVKFSRSADAPAYQQGQNQLYNELNLGRREEYDVLDKRRGRDPEMGGKPRRKNPQEGLYNELQKDKMAEAYSEIGMKGERRRGKGHDGLYQGLSTATKDTYDALHMQALPPR
# notes: also called CD70-8F9-BBz
# Target: T1, Fc-labeled CD70 antigen
# Assay: flow cytometry: CAR-transduced T cells stained with Fc-labeled CD70 antigen (1:100) and secondary antibody PE-Fc; NT control 0.79
# Method: The CAR positive rate of the retrovirus-infected T lymphocytes was detected 72 hours after virus infection. For the chimeric antigen receptor group containing CD70-2A5-BBz, CD70-8B4-BBz, CD70-9D8-BBz, CD70-11C9-BBz and ARGX-BBz clones and the negative uninfected control NT, 1×10⁶ cells from the above two groups respectively, were taken and centrifuged to remove the medium, washed once with PBS, and resuspended in 100 μL in a flow loading tube (BD). Fc-labeled CD70 antigen (1:100) was added and incubated for 30 minutes at 4° C. After washing the cells once with PBS, the secondary antibody PE-Fc was added according to the recommended ratio and incubated for 30 minutes in the dark. After the cells were washed once with PBS, the cells were resuspended in 200 μL of PBS and tested on the machine. The results of flow cytometric analysis of CAR-T positive rate are shown by FIG. 16.
row,Binder,CD70 CAR+ (positive rate of the cells) [%]
1,B1,83
2,B2,78.3
3,B3,82.4

# Target: T1, Fc-labeled CD70 antigen
# Assay: flow cytometry: CAR-transduced T cells stained with Fc-labeled CD70 antigen (1:100) and secondary antibody PE-Fc; NT control 0.61
# Method: The CAR positive rate of the retrovirus-infected T lymphocytes were detected 72 hours after virus infection. For the chimeric antigen receptor group containing CD70-2A5-BBz, CD70-5C10-BBz, CD70-8A6-BBz, CD70-8B4-BBz, CD70-8E1-BBz, CD70-8F9-BBz, CD70-9D8-BBz, CD70-11C9-BBz and ARGX-BBz clone and the negative uninfected control group NT, 1×10⁶ cells from the above two groups respectively, were taken and centrifuged to remove the medium, the cells were washed once with PBS, and resuspended in 100 μL of the flow loading tube (BD). Fc-labeled CD70 antigen (1:100) was added and incubated for 30 minutes at 4° C. After washing the cells once with PBS, the secondary antibody PE-Fc was added according to the recommended ratio and incubated for 30 minutes in the dark. After the cells were washed once with PBS, the cells were resuspended in 200 μL of PBS and tested on the machine. The results of flow cytometric analysis of CAR-T positive rate are shown by FIG. 11.
row,Binder,CD70 CAR+ (positive rate of the cells) [%]
1,B1,74.1
2,B2,72.1
3,B3,75.8
4,B4,60
5,B5,72.7
